Measurements from patent publication US20170101470A1 (PROTHENA BIOSCIENCES, published 2017).
Substitutions are numbered along the chain they refer to. Numbers in names are those of the source.

T1: recombinant hMCAM-His (human, UniProt P43121 24-559)
T1 chain: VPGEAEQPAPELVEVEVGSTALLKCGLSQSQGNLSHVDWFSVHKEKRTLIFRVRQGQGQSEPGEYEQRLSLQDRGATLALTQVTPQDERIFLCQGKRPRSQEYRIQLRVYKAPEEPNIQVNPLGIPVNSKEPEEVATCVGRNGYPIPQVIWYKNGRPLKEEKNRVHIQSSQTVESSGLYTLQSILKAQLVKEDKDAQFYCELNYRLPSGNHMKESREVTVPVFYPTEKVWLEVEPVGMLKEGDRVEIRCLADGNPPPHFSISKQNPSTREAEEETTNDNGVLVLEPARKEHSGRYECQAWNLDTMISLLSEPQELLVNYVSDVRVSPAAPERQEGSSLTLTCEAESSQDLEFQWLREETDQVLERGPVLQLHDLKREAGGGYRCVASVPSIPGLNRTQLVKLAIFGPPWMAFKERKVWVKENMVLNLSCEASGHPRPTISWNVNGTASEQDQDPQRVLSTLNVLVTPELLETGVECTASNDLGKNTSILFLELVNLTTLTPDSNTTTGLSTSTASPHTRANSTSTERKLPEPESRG

B1: human MCAM expressed on CHO cells (full length human MCAM gene) (receptor)
chain: VPGEAEQPAPELVEVEVGSTALLKCGLSQSQGNLSHVDWFSVHKEKRTLIFRVRQGQGQSEPGEYEQRLSLQDRGATLALTQVTPQDERIFLCQGKRPRSQEYRIQLRVYKAPEEPNIQVNPLGIPVNSKEPEEVATCVGRNGYPIPQVIWYKNGRPLKEEKNRVHIQSSQTVESSGLYTLQSILKAQLVKEDKDAQFYCELNYRLPSGNHMKESREVTVPVFYPTEKVWLEVEPVGMLKEGDRVEIRCLADGNPPPHFSISKQNPSTREAEEETTNDNGVLVLEPARKEHSGRYECQAWNLDTMISLLSEPQELLVNYVSDVRVSPAAPERQEGSSLTLTCEAESSQDLEFQWLREETDQVLERGPVLQLHDLKREAGGGYRCVASVPSIPGLNRTQLVKLAIFGPPWMAFKERKVWVKENMVLNLSCEASGHPRPTISWNVNGTASEQDQDPQRVLSTLNVLVTPELLETGVECTASNDLGKNTSILFLELVNLTTLTPDSNTTTGLSTSTASPHTRANSTSTERKLPEPESRGVVIVAVIVCILVLAVLGAVLYFLYKKGKLPCRRSGKQEITLPPSRKTELVVEVKSDKLPEEMGLLQGSSGDKRAPGDQGEKYIDLRH
notes: also called hMCAM expressing CHO cells; CD146
B2: human MCAM Y318A mutant displayed on mammalian cells (Example 5) (receptor)
chain: B1 chain with Y295A
notes: construct and any tag not described
B3: humanized anti-MCAM antibody h2120_VH1 + h2120_VL3 (antibody, V domains shown)
VH: QVTLKESGPVLVKPTETLTLTCTVSGFSLTSNGVSWVRQPPGKALEWIAAISSGGTTYYNSAFKSRLTISRDTSKSQVVLTMTNMDPVDTATYYCARRYGYGWYFDFWGQGTLVTVSS
VL: DIQMTQSPSSLSASVGDRVTINCKASQNIYNSLAWYQQKPGKAPKVLIFNANSLQTGIPSRFSGSGSGTDFTLTISSLQPEDFATYYCQQFYSGYTFGQGTKLEIK
notes: V regions cloned into vectors containing human CK (VL) or human IgG1 (VH); also called h2120VH1VL3; Standard VH + conservative VL
B4: humanized anti-MCAM antibody h2120_VH2 + h2120_VL3 (antibody, V domains shown)
VH: B3 VH with T68S
VL: B3 VL
notes: Human IgG1 / human kappa; also called h2120VH2VL3; Conservative VH + conservative VL
B5: humanized anti-MCAM antibody h2120_VH5 + h2120_VL3 (antibody, V domains shown)
VH: B3 VH with G33A
VL: B3 VL
notes: Human IgG1 / human kappa; also called h2120VH5VL3; VH5VL3

Tests used:
recombinant laminin 511 = biological target: T2, recombinant laminin 511 (UniProt O15230 36-3695; P07942 22-1786; P11047 34-1609); assay: flow cytometry with a pan-laminin antibody on CHO cells transfected with human MCAM
T2 construct: also called laminin 10 (α5β1γ1)

laminin α-4 = laminin α-4 (UniProt Q16363 25-1823); assay: FACS on MCAM mutants displayed on mammalian cells
Chain of laminin α-4 (Q16363 25-1823): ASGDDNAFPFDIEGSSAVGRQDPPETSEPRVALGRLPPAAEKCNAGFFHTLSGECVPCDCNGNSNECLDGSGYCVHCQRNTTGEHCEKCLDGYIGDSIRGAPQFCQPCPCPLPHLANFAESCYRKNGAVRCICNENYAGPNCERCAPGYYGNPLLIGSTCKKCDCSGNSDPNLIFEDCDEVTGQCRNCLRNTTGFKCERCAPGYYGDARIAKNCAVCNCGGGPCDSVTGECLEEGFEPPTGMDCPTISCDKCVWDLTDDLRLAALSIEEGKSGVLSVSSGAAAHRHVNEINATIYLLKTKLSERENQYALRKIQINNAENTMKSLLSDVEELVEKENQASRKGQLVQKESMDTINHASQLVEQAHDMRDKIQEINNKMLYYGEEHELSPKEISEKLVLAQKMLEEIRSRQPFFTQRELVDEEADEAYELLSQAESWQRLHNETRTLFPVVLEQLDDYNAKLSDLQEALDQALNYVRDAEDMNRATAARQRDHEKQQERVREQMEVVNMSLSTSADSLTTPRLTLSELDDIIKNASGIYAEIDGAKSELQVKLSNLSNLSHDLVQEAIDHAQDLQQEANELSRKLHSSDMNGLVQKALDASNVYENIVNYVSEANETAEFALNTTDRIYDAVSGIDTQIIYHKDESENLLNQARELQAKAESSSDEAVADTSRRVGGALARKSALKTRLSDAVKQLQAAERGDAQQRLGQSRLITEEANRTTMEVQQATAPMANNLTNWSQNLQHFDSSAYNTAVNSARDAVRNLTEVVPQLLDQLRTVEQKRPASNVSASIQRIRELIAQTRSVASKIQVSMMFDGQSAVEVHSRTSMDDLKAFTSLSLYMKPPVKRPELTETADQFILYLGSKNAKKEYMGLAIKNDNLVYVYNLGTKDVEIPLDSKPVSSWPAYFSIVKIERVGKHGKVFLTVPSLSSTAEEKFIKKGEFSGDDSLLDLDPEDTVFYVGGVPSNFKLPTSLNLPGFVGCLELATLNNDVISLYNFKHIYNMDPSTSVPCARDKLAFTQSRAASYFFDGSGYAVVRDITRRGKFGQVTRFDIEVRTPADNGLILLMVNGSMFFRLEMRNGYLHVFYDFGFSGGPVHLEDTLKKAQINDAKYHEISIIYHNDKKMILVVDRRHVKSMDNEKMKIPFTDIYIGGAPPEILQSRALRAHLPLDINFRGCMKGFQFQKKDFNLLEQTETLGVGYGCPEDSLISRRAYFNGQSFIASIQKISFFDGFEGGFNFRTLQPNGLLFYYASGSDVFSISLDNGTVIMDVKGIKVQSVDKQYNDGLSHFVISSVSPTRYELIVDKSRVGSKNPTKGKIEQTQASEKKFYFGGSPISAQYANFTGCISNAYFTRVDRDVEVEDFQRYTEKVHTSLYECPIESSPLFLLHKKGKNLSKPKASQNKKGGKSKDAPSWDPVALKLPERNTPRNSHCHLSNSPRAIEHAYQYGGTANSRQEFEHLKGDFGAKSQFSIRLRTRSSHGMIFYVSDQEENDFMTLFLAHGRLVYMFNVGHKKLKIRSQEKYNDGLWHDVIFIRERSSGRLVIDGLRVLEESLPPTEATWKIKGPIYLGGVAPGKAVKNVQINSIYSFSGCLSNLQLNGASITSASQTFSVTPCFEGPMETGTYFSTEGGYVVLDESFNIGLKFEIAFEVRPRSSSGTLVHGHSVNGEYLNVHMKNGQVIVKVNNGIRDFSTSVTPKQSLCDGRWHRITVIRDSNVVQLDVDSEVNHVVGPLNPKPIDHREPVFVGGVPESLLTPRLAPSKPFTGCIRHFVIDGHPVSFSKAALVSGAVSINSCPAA

recombinant hMCAM-His [1] = biological target: T1, recombinant hMCAM-His; assay: competitive ELISA on coated hMCAM-His, competitor biotinylated rodent or chimeric 2120; IC50 relative to rodent 2120
Method: (§1) The apparent affinities of the humanized antibodies were compared to the parental rodent or chimeric antibody in a competitive ELISA according to the following protocol: ELISA plates were coated with recombinant hMCAM-His, and blocked with casein buffer to prevent non-specific binding. Biotinylated rodent or chimeric antibody was added at a subsaturating concentration, in the presence or absence of 3× increasing concentrations of unlabeled competitor (humanized antibody, rodent, or chimeric). After washing to remove unbound antibody, streptavidin HRP was added to allow detection of the biotinylated antibody. The ELISA was developed with TMB substrate and the OD450 was measured. The IC50 of the unlabeled competitor was determined using the GraphPad Prism5 software.

recombinant hMCAM-His [2] = biological target: T1, recombinant hMCAM-His; assay: ForteBio Octet Red, antibody on anti-human Fc sensors, hMCAMHis analyte, 1:1 fit; affinity relative to rodent 2120, Expt. #1
Method: (§2) The affinities were measured using the ForteBio Octet Red. Anti-human Fc sensors were used to capture the humanized antibodies, and several concentrations of hMCAMHis analyte were used to determine the affinity using a 1:1 fitting model.

recombinant hMCAM-His [3] = biological target: T1, recombinant hMCAM-His; assay: ForteBio Octet Red, antibody on anti-human Fc sensors, hMCAMHis analyte, 1:1 fit; affinity relative to rodent 2120, Expt. #2
Method: as §2

recombinant hMCAM-His [4] = biological target: T1, recombinant hMCAM-His; assay: competitive ELISA on coated hMCAM-His, competitor biotinylated rodent or chimeric 2120; IC50 relative to rodent 2120, Expt. #1
Method: as §1

recombinant hMCAM-His [5] = biological target: T1, recombinant hMCAM-His; assay: competitive ELISA on coated hMCAM-His, competitor biotinylated rodent or chimeric 2120; IC50 relative to rodent 2120, Expt. #2
Method: as §1

[6] = biological target: B1; assay: laminin/FACS assay: blocking of recombinant laminin 411 binding to hMCAM expressing CHO cells, relative to rodent 2120, Expt#1
Method: (§3) Following incubation for 30-45 minutes, the cells were washed and anti-laminin conjugated to AF650 (NovusBio) was added to detect the bound laminin. The cells were run on a flow cytometer to measure the laminin binding signal.

[7] = biological target: B1; assay: laminin/FACS assay: blocking of recombinant laminin 411 binding to hMCAM expressing CHO cells, relative to rodent 2120, Expt#2
Method: as §3

recombinant hMCAM-His [8] = biological target: T1, recombinant hMCAM-His; assay: ForteBio Octet Red, antibody on anti-human Fc sensors, hMCAMHis analyte, 1:1 fit; affinity relative to rodent 2120, first Forte column
Method: as §2

recombinant hMCAM-His [9] = biological target: T1, recombinant hMCAM-His; assay: ForteBio Octet Red, antibody on anti-human Fc sensors, hMCAMHis analyte, 1:1 fit; affinity relative to rodent 2120, second Forte column
Method: as §2

recombinant hMCAM-His [10] = biological target: T1, recombinant hMCAM-His; assay: summary of ForteBio and competitive ELISA on hMCAM-His
Method: as §1, §2

[11] = biological target: B1; assay: summary of laminin blocking assay on hMCAM expressing CHO cells
Method: as §3

| Fold over rodent (ELISA) (recombinant hMCAM-His [1]) | Fold over rodent (Forte) (recombinant hMCAM-His [2]) | Fold over rodent (Forte) (recombinant hMCAM-His [3]) | Fold over rodent (ELISA) (recombinant hMCAM-His [4]) | Fold over rodent (ELISA) (recombinant hMCAM-His [5]) | Fold over rodent (Blocking) [6] | Fold over rodent (Blocking) [7] | Fold over rodent (Forte) (recombinant hMCAM-His [8]) | Fold over rodent (Forte) (recombinant hMCAM-His [9]) | Binder | other results |
| --- | --- | --- | --- | --- | --- | --- | --- | --- | --- | --- |
| – | – | – | – | – | – | – | – | – | B1 | binding result (recombinant laminin 511): no binding (tested: 10 µg/ml) |
| – | – | – | – | – | – | – | – | – | B2 | binding result (laminin α-4): no binding |
| 1.8 fold | 5.64 fold | 6.21 fold | 2.23 fold | 2.42 fold | 1.7 fold | 2.8 fold | 5.9 fold | 5.8 fold | B3 | – |
| – | 6.57 fold | 6.43 fold | 1.93 fold | 2.62 fold | – | – | – | – | B4 | – |
| 2.4 fold | – | – | – | – | 1.2 fold | 1.5 fold | 1.1 fold | 1.2 fold | B5 | reduction in affinity (fold, against rodent 2120) (recombinant hMCAM-His [10]): < 2 fold; reduction in potency (fold, against rodent 2120) [11]: < 2 fold |
